In patent publication US20210317225A1 (Genmab, published 2021):

Tests used:
[1] = target: T1, Human CD137 shuffle 6 (amino acids 24-47 replaced by wild boar CD137) (human, amino acids 24-47 from wild boar, UniProt Q07011 26-200); experiment: flow cytometry on transfected HEK293T-17 cells
T1 construct: also called shuffle construct 6
T1 chain: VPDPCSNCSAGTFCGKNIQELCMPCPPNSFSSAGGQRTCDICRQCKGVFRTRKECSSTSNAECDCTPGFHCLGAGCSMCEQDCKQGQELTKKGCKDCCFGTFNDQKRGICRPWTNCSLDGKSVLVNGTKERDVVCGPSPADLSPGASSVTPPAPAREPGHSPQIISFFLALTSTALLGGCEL
Description: (§1) 3×10⁶ HEK293T-17 cells were seeded in T75 culture flasks (Greiner Bio-One, cat. no. 658175) in 20 mL RPMI 1640 GlutaMAX medium containing 10% FCS (Biochrom, cat. no. S 0115). After O/N incubation, cells were transiently […] with expression vectors encoding the shuffle constructs or the wild boar, African elephant or human CD137 downstream of a constitutively active human elongation factor-1 alpha (EF-1 alpha) promotor using TransIT®-LT1 Transfection Reagent, Mirus Bio (VWR International, cat. no. 731-0029), according to the manufacturer's instructions. The next day, cells were harvested using 1.5 mL Accutase (Sigma Aldrich, cat. no. A6964) (incubation at 37° C. for 5 min.) and flow cytometry was performed, essentially as described in Example 4, to measure surface expression of the shuffle constructs and the human, African elephant and wild boar CD137 and to measure binding of the antibody clones to the different shuffle constructs. To measure cell surface expression of the constructs, transduced cells were incubated with 1 μg/mL goat polyclonal anti-human CD137 (R&D Systems, cat. no. AF838) in FACS buffer (D-PBS supplemented with 5 mM EDTA [Sigma Aldrich, cat. no. 03690] and 5% (v/v) fetal bovine serum [FBS, Biochrom, cat. no. S 0115]) (4° C., 20 min.), followed by incubation with APC-labeled anti-goat IgG (H+L) (R&D Systems, cat. no. F0108) (4° C., 20 min.). Binding of the different CD137 antibody clones to cells expressing the shuffle constructs was measured by incubation of the transduced cells with 1 μg/mL of the antibody clones, followed by APC-labeled AffiniPure F(ab′)2 Fragment (1:50 final dilution; Jackson, cat. no. 109-136-127).

[2] = target: T2, Human CD137 shuffle 1 (amino acids 162-186 replaced by wild boar CD137) (human, amino acids 162-186 from wild …, UniProt Q07011 24-255); experiment: flow cytometry on transfected HEK293T-17 cells, 1 µg/mL antibody
T2 construct: also called shuffle construct 1
T2 chain: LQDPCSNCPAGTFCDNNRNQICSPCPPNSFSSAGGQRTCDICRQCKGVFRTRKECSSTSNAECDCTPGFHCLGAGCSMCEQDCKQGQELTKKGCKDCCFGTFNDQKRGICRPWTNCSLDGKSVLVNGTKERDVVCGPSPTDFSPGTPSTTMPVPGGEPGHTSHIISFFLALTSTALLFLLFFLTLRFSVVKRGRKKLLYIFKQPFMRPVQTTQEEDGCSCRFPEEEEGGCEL
Description: as §1

[3] = target: T3, Human CD137 shuffle 3 (amino acids 115-138 replaced by wild boar CD137) (human, amino acids 115-138 from wild …, UniProt Q07011 24-255); experiment: as above
T3 construct: also called shuffle construct 3
T3 chain: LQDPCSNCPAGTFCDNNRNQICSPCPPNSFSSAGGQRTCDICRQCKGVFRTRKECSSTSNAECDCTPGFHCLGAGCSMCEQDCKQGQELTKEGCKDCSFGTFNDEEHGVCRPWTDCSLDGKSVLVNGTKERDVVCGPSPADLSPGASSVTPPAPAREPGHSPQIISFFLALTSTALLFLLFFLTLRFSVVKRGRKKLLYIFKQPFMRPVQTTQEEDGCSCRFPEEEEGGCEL
Description: as §1

[4] = target: T4, Human CD137 shuffle 2 (amino acids 139-161 replaced by wild boar CD137) (human, amino acids 139-161 from wild …, UniProt Q07011 24-255); experiment: as above
T4 construct: also called shuffle construct 2
T4 chain: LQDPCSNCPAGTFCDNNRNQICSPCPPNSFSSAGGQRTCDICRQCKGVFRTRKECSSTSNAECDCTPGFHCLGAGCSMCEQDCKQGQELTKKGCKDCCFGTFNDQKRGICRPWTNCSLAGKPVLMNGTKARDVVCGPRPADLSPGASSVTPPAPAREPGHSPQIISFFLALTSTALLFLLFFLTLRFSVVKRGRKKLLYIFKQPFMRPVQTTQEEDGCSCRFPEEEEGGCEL
Description: as §1

[5] = target: T5, Human CD137 shuffle 5 (amino acids 48-88 replaced by African elephant CD137) (human, amino acids 48-88 from African …, UniProt Q07011 24-255); experiment: as above
T5 construct: also called shuffle construct 5
T5 chain: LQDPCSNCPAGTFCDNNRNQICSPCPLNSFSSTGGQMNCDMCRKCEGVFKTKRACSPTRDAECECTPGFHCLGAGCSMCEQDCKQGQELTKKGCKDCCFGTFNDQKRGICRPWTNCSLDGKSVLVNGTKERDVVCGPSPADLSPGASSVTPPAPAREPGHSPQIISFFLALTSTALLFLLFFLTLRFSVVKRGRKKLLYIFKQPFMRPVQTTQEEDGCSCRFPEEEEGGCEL
Description: as §1

[6] = target: T6, Human CD137 shuffle 4 (amino acids 89-114 replaced by wild boar CD137) (human, amino acids 89-114 from wild boar, UniProt Q07011 24-255); experiment: as above
T6 construct: also called shuffle construct 4
T6 chain: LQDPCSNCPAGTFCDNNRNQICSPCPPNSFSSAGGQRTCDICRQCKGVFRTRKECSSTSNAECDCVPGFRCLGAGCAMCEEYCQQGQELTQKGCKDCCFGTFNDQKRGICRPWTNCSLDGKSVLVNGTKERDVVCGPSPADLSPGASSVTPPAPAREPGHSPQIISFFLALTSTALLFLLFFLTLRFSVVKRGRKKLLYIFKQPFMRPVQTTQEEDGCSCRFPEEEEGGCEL
Description: as §1

Human CD137 (TNR9_Human) = target: T7, Human CD137 (TNR9_Human) (human, UniProt Q07011 24-255); experiment: flow cytometry, HEK293-T17 cells transiently transfected with human CD137, antibody at 1 µg/mL, APC-labeled F(ab')2 secondary
T7 construct: Full-length human CD137 expressed on HEK293T-17, NF-kB/293/GFP-Luc or K562 cells, or native on T cells; also called hCD137 wt; 4-1BB
Description: FIG. 4: Binding of CD137 antibody clones to CD137 shuffle constructs expressed on HEK293-T17 cells. HEK293-T17 cells were transfected with the CD137 shuffle constructs, and with human CD137 (hCD137 wt), African elephant of wild boar CD137, as indicated. Binding of the different CD137 antibody clones to these constructs expressed on HEK293-T17 cells was measured by flow cytometry. Staining with polyclonal anti-CD137 antibody is shown as a control.
as §1

T7 sequence (Q07011 24-255): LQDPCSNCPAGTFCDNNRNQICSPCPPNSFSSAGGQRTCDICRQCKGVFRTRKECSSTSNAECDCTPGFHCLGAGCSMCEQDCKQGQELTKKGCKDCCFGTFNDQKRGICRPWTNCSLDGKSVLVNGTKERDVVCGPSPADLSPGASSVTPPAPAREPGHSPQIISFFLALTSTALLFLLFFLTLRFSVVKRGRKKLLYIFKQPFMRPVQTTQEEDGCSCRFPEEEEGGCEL

B1: CD137 antibody clone 005 (rabbit) (antibody, human IgG1, kappa, V domains shown)
VH: QSVEESGGRLVTPGTPLTLTCTASGFTISDFHVTWVRQAPGKGLEWIGTIITSASTTAYATWARGRFTISKSSTTVNLKIVSPTTEDTATYFCARSTYTDTSGYYFDFWGQGTLVTVSS
VL: AQVLTQTASPVSAAVGGTVIINCQSSQSIYNGNRLSWYQQKPGQPPKLLIYSASTLASGVSSRFKGSGSGTQFTLAISDVQSDDAATYYCLGSYDCDSADCFAFGGGTEVVVER
notes: also called Clone 5; CD137 clone 005
[1]
  binding result: no binding (tested: 1 µg/mL)
[2]
  binding result: binds
[3]
  binding result: binds
[4]
  binding result: binds
[5]
  binding result: binds
[6]
  binding result: binds
Human CD137 (TNR9_Human)
  binding result: binds
